This experiment has as its target ML/HLA-A2 pMHC, soluble recombinant (human | ). Nature of the experiment: SPR. Background: In SPR one partner is held on a chip, and binding of the other changes the refractive index at the surface.

B1: fML soluble recombinant Fab (Fab, V domains shown)
VH: EVQLVESGGGLVQPGGSLRLSCAASGFNFSYYSIHWVRQAPGKGLEWVASIYSSSSYTSYADSVKGRFTISADTSKNTAYLQMNSLRAEDTAVYYCARGYYGEWGMDYWGQGTLVTVSS
VL: DIQMTQSPSSLSASVGDRVTITCRASQSVSSAVAWYQQKPGKAPKLLIYSASSLYSGVPSRFSGSRSGTDFTLTISSLQPEDFATYYCQQWNAYPVTFGQGTKVEIK
In the case of B1, the dissociation rate constant (koff) (in general, a measure of how fast the partners let go of each other) came out at 0.016 s⁻¹.
